To fix the notation:
B1: TCH4, XTH22, Xyloglucan endotransglucosylase/hydrolase family protein (protein, UniProt Q38857 22-284, looked up)
Xyloglucan endotransglucosylase/hydrolase protein 22: NFQRDVEITWGDGRGQIKNNGELLTLSLDKSSGSGFQSKNEYLFGKVSMQMKLVPGNSAGTVTTLYLKSPGTTWDEIDFEFLGNSSGEPYTLHTNVYTQGKGDKEQQFKLWFDPTANFHTYTILWNPQRIIFTVDGTPIREFKNMESLGTLFPKNKPMRMYSSLWNADDWATRGGLVKTDWSKAPFTASYRGFQQEACVWSNGKSSCPNASKQGTTTGSWLSQELDSTAQQRMRWVQRNYMIYNYCTDAKRFPQGLPKECLAA
B2: ISU1, SufE/NifU family protein (protein, UniProt O49627 51-167, looked up)
Iron-sulfur cluster assembly protein 1: PNVGTGLVGAPACGDVMKLQIKVDEKTGQIVDARFKTFGCGSAIASSSVATEWVKGKAMEDVLTIKNTEIAKHLSLPPVKLHCSMLAEDAIKAAVKDYKEKRVKTNGAAAAGETTQA
B3: NSP5, nitrile specifier protein 5 (protein, UniProt Q93XW5 1-326, looked up)
Thiohydroximate-O-sulfate sulfur/sulfate-lyase (nitrile-forming) NSP5: MCPVENKWLKVGQKGAGPGARSSHAMTVVGNKVYCFGGELKPTIHIDNDLYVFDLETQEWSIAPATGEAPFPCFGVSMVTIGSTIYVYGGRDDKRRYNGLHSYDTETNEWKLLAPVEEGLPGRSYHSMAGDDRKVYVFGGVTAKGRVNTLHAYDVVDQKWVEYPAAGEACKGRGAPGLVVVEGRIWVLFGFDGNELGDIHCFDLASEQWKAVETTGDVPAARSVFPAVSYGKYIVIYGGEEEPHELMHMGAGKMSGEVYQLDTETLVWERIVCGNEEEKPSQRGWCAFTKAVKDGEEGLLVHGGNSPTNERLDDLVFWGFSHLNVN
B4: UGT74F2, UDP-glucosyltransferase 74F2 (protein, UniProt O22822 1-449, looked up)
UDP-glycosyltransferase 74F2: MEHKRGHVLAVPYPTQGHITPFRQFCKRLHFKGLKTTLALTTFVFNSINPDLSGPISIATISDGYDHGGFETADSIDDYLKDFKTSGSKTIADIIQKHQTSDNPITCIVYDAFLPWALDVAREFGLVATPFFTQPCAVNYVYYLSYINNGSLQLPIEELPFLELQDLPSFFSVSGSYPAYFEMVLQQFINFEKADFVLVNSFQELELHENELWSKACPVLTIGPTIPSIYLDQRIKSDTGYDLNLFESKDDSFCINWLDTRPQGSVVYVAFGSMAQLTNVQMEELASAVSNFSFLWVVRSSEEEKLPSGFLETVNKEKSLVLKWSPQLQVLSNKAIGCFLTHCGWNSTMEALTFGVPMVAMPQWTDQPMNAKYIQDVWKAGVRVKTEKESGIAKREEIEFSIKEVMEGERSKEMKKNVKKWRDLAVKSLNEGGSTDTNIDTFVSRVQSK
B5: ADF6 (protein, UniProt Q9ZSK2 1-146, looked up)
Actin-depolymerizing factor 6: MSFRGLSRPNAISGMGVADESKTTFLELQRKKTHRYVVFKIDESKKEVVVEKTGNPTESYDDFLASLPDNDCRYAVYDFDFVTSENCQKSKIFFFAWSPSTSGIRAKVLYSTSKDQLSRELQGIHYEIQATDPTEVDLEVLRERAN
B6: LON2, lon protease 2 (protein, UniProt O64948 1-888, looked up)
Lon protease homolog 2, peroxisomal: MAETVELPSRLAILPFRNKVLLPGAIIRIRCTSHSSVTLVEQELWQKEEKGLIGILPVRDDAEGSSIGTMINPGAGSDSGERSLKFLVGTTDAQKSDAKDQQDLQWHTRGVAARALHLSRGVEKPSGRVTYVVVLEGLSRFNVQELGKRGPYSVARITSLEMTKAELEQVKQDPDFVALSRQFKTTAMELVSVLEQKQKTGGRTKVLLETVPIHKLADIFVASFEMSFEEQLSMLDSVDLKVRLSKATELVDRHLQSIRVAEKITQKVEGQLSKSQKEYLLRQQMRAIKEELGDNDDDEDDVAALERKMQAAGMPSNIWKHAQRELRRLKKMQPQQPGYNSSRVYLELLADLPWDKASEEHELDLKAAKERLDSDHYGLAKVKQRIIEYLAVRKLKPDARGPVLCFVGPPGVGKTSLASSIAAALGRKFVRLSLGGVKDEADIRGHRRTYIGSMPGRLIDGLKRVGVCNPVMLLDEIDKTGSDVRGDPASALLEVLDPEQNKSFNDHYLNVPYDLSKVVFVATANRVQPIPPPLLDRMELIELPGYTQEEKLKIAMRHLIPRVLDQHGLSSEFLKIPEAMVKNIIQRYTREAGVRSLERNLAALARAAAVMVAEHEQSLPLSKDVQKLTSPLLNGRMAEGGEVEMEVIPMGVNDHEIGGTFQSPSALVVDETMLEKILGPPRFDDSEAADRVASAGVSVGLVWTTFGGEVQFVEATSMVGKGEMHLTGQLGDVIKESAQLALTWVRARASDFKLALAGDMNVLDGRDIHIHFPAGAVPKDGPSAGVTLVTALVSLFSQKRVRADTAMTGEMTLRGLVLPVGGIKDKILAAHRYGIKRVILPQRNSKDLVEVPAAVLSSLEVILAKRMEDVLENAFEGGCPWRNNYSKL
B7: UGT85A1, UDP-Glycosyltransferase superfamily protein (protein, UniProt Q9SK82 1-489, looked up)
UDP-glycosyltransferase 85A1: MGSQIIHNSQKPHVVCVPYPAQGHINPMMRVAKLLHARGFYVTFVNTVYNHNRFLRSRGSNALDGLPSFRFESIADGLPETDMDATQDITALCESTMKNCLAPFRELLQRINAGDNVPPVSCIVSDGCMSFTLDVAEELGVPEVLFWTTSGCAFLAYLHFYLFIEKGLCPLKDESYLTKEYLEDTVIDFIPTMKNVKLKDIPSFIRTTNPDDVMISFALRETERAKRASAIILNTFDDLEHDVVHAMQSILPPVYSVGPLHLLANREIEEGSEIGMMSSNLWKEEMECLDWLDTKTQNSVIYINFGSITVLSVKQLVEFAWGLAGSGKEFLWVIRPDLVAGEEAMVPPDFLMETKDRSMLASWCPQEKVLSHPAIGGFLTHCGWNSILESLSCGVPMVCWPFFADQQMNCKFCCDEWDVGIEIGGDVKREEVEAVVRELMDGEKGKKMREKAVEWQRLAEKATEHKLGSSVMNFETVVSKFLLGQKSQD
B8: G6PD6, glucose-6-phosphate dehydrogenase 6 (protein, UniProt Q9FJI5 1-515, looked up)
Glucose-6-phosphate 1-dehydrogenase 6, cytoplasmic: MGSGQWHVEKRSTFRNDSFVREYGIVPETGCLSIIVLGASGDLAKKKTFPALFNLYRQGFLNPDEVHIFGYARTKISDEELRDRIRGYLVDEKNAEQAEALSKFLQLIKYVSGPYDAEEGFQRLDKAISEHEISKNSTEGSSRRLFYLALPPSVYPSVCKMIKTCCMNKSDLGGWTRIVVEKPFGKDLESAEQLSSQIGELFDESQIYRIDHYLGKELVQNMLVLRFANRFFLPLWNRDNIENVQIVFREDFGTEGRGGYFDEYGIIRDIIQNHLLQVLCLVAMEKPISLKPEHIRDEKVKVLQSVVPISDDEVVLGQYEGYRDDDTVPNDSNTPTFATTILRIHNERWEGVPFILKAGKALNSRKAEIRIQFKDVPGDIFRCQKQGRNEFVIRLQPSEAMYMKLTVKQPGLDMNTVQSELDLSYGQRYQGVAIPEAYERLILDTIKGDQQHFVRRDELKVAWEIFTPLLHRIDKGEVKSIPYKPGSRGPKEADQLLEKAGYLQTHGYIWIPPTL
B9: ARD3, acireductone dioxygenase 3 (protein, UniProt Q8W108 1-199, looked up)
Acireductone dioxygenase 3: MGEVVKDGREEVIQAWYMDDSEEDQRLPHHKDPKEFLSLDKLAELGVLSWRLDADNYETDEDLKKIRESRGYSYMDFCEVCPEKLPNYEVKVKSFFEEHLHTDEEIRYCVAGSGYFDVRDRNEAWIRVWVKKGGMIVLPAGIYHRFTVDSDNYIKAMRLFVGEPVWTPYNRPHDHLPARKEYIDNFVKVNEGGVIDASA

In patent publication US20230227838A1, “ENHANCED CELL SURVIVAL AGAINST BIOTIC AND ABIOTIC STRESSES THROUGH SALICYLICK ACID-INDUCED NPR1 CONDENSATES” (priority 2020, published 2023) one finds Normalized Fold Change: SA vs Mock data, which are given here for 9 molecules.

The experiment deals with sim3-GFP (Arabidopsis thaliana) (UniProt P93002). Briefly: sim3-GFP IP, LC-MS/MS.
Sequence of sim3-GFP (Arabidopsis thaliana) (P93002 other isoform, or with tags, fused parts or gaps): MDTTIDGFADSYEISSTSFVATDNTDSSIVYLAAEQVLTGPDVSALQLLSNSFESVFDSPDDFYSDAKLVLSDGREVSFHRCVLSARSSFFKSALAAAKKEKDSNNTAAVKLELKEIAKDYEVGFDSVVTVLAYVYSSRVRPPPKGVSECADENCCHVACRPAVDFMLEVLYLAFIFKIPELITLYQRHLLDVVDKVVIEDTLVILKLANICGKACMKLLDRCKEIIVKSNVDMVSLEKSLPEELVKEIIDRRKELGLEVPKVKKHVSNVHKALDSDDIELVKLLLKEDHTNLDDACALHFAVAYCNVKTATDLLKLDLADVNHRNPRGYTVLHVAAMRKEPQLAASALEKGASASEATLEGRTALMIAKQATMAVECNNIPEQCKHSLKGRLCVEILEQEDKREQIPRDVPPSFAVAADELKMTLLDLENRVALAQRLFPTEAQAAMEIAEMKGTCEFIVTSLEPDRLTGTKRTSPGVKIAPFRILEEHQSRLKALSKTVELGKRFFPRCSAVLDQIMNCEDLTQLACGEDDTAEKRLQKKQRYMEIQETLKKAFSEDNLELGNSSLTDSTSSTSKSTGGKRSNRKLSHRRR
For B1, the Normalized Fold Change: SA vs Mock amounted to 102 fold.

Molecule B2 returned a Normalized Fold Change: SA vs Mock of 3.44 fold. As for B3, the Normalized Fold Change: SA vs Mock was 5240 fold. With B4 the figure was 8.99 fold; with B5, 2.26 fold; with B6, 2.47 fold.

B7 displayed a Normalized Fold Change: SA vs Mock of 4.86 fold.

In turn, B8 displayed a Normalized Fold Change: SA vs Mock of 4.1 fold. The result for B9 reads 8.57 fold.
